Data set [1] addresses T1, wBm-MurA (Wolbachia endosymbiont of Brugia malayi, UniProt Q5GRP6).
T1 construct: full-length 1278 bp ORF in pET28a (BamHI/XhoI), His6-tagged, expressed in E. coli Rosetta(DE3)pLysS, Ni-NTA purified, ~51 kDa, tag removal not mentioned
T1 sequence (Q5GRP6 1-425): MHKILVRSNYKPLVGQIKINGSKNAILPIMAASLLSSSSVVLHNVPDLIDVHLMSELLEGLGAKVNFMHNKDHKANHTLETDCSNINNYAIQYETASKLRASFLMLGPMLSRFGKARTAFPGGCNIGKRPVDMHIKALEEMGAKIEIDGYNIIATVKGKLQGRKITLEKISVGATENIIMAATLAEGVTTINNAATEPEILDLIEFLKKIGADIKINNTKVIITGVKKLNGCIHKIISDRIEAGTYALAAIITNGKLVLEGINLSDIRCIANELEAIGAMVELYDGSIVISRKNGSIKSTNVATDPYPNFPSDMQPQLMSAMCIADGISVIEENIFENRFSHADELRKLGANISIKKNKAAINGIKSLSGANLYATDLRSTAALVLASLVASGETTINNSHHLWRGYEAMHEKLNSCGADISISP
The data set can be described thus: malachite green phosphate release assay, […] min pre-incubation, […] h reaction. The following applies: 5 mM PEP, 0.6 mM UDPAG, pH 7.5, 37°C; competitive with PEP; covalent (as stated by authors). Type of data set: biochemical.

Substrate in data set [2]: C=C(OP(=O)(O)O)C(=O)O
Put plainly: malachite green phosphate release assay, Michaelis-Menten non-linear fit. Type of data set: biochemical, Wolbachia endosymbiont of Brugia malayi. The following applies: 5 mM UDPAG, 50 mM Tris-HCl pH 7.5, 10 mM KCl, 1 mM DTT, 10% glycerol, 37°C.

Substrate in data set [3]: CC(=O)N[C@H]1[C@@H](OP(=O)(O)OP(=O)(O)OC[C@H]2O[C@@H](n3ccc(=O)[nH]c3=O)[C@H](O)[C@@H]2O)O[C@H](CO)[C@@H](O)[C@@H]1O
The description is as above. The data set is classed as biochemical, Wolbachia endosymbiont of Brugia malayi. The following applies: 1 mM PEP, 50 mM Tris-HCl pH 7.5, 10 mM KCl, 1 mM DTT, 10% glycerol, 37°C.

For `C[C@@H]1O[C@@H]1P(=O)(O)O` [fosfomycin], in data set [1], the “fold decrease of activity at 50 mM” value was ~ 2 fold.

B1: wBm-MurA (Wolbachia endosymbiont strain TRS of Brugia malayi) (protein)
chain: MHKILVRSNYKPLVGQIKINGSKNAILPIMAASLLSSSSVVLHNVPDLIDVHLMSELLEGLGAKVNFMHNKDHKANHTLETDCSNINNYAIQYETASKLRASFLMLGPMLSRFGKARTAFPGGCNIGKRPVDMHIKALEEMGAKIEIDGYNIIATVKGKLQGRKITLEKISVGATENIIMAATLAEGVTTINNAATEPEILDLIEFLKKIGADIKINNTKVIITGVKKLNGCIHKIISDRIEAGTYALAAIITNGKLVLEGINLSDIRCIANELEAIGAMVELYDGSIVISRKNGSIKSTNVATDPYPNFPSDMQPQLMSAMCIADGISVIEENIFENRFSHADELRKLGANISIKKNKAAINGIKSLSGANLYATDLRSTAALVLASLVASGETTINNSHHLWRGYEAMHEKLNSCGADISISP
notes: full-length 1278 bp ORF in pET28a (BamHI/XhoI), His6-tagged, expressed in E. coli Rosetta(DE3)pLysS, Ni-NTA purified, ~51 kDa, tag removal not mentioned
Turning to B1, the values for the Km in data set [2] and in data set [3] were 9.198 µM and 31.49 µM, respectively.

In general, Km refers to the concentration of substrate that gives half-maximal velocity.

Source of the values: paper PMC4062475, “Cloning, Expression and Characterization of UDP-N-Acetylglucosamine Enolpyruvyl Transferase (MurA) from Wolbachia Endosymbiont of Human Lymphatic Filarial Parasite Brugia malayi” (PLoS ONE, 2014).
